According to patent US7148071B2, “Quantitative, high-throughput screening method for protein stability” (Duke University, priority 2000, dated 2006):
Marks after values point to notes of the source that are not given here. Ends that are not written are not given here.

Columns and labels:
[1] = SUPREX analysis of P22 Arc repressor, a homo-dimeric protein; type: physicochemical; conditions: ΔGSUPREX adjusted to standard conditions (1 M dimer)
[2] = cited from earlier work
P22 Arc repressor = P22 Arc repressor (Salmonella phage P22, UniProt P03050); test: SUPREX analysis of P22 Arc repressor in the absence and presence of cognate DNA; type: binding; conditions: Arc dimer 12 μM, absence of DNA, 20 mM phosphate pH=7.4
From the text: . At this concentration the stability of the Arc dimer is less than that detectable by SUPREX. Even with exchange times of several minutes, there is no transition detected in the SUPREX curve. The transition midpoint is shifted off scale to the left; […].

Trp repressor protein = Trp repressor protein (Escherichia coli, UniProt P0A881)
Procedure: The concentration of Trp repressor in these experiments was 20 μM; and in (B) the concentration of L-tryptophan in each SUPREX buffer was 200 μM.

[3] = conventional CD denaturation curves of purified proteins; type: physicochemical; conditions: purified protein, pH 8 buffer, FIG. 10A
Procedure: FIGS. 10A–10C depict a conventional denaturation curve by CD with purified protein in 0.15 M NaCl, 20 mM Na2HPO4, 20 mM CH3COONa, pH 8.

[4] = SUPREX (H/D exchange detected by MALDI MS) stability of unpurified proteins in crude E. coli lysates; type: physicochemical
E. coli = type: cell-based
Procedure: . […] In FIG. 10B, E. coli placed in various concentrations of urea for 30 minutes were studied at 23° C. (closed circles) and 15° C. (open circles).
(closed circles) and 15° C. (open circles). 1 ml cultures of BL21-(DE3) E. coli were pelleted and resuspended in LB media containing various urea concentrations and incubated for 30 minutes at 15° C. and 23° C. The cells were then pelleted and resuspended in 1 ml of LB media, diluted 1000, plated on LB-agar plates, incubated at 37° C. overnight and the number of colonies were counted.

[5] = high sensitivity SUPREX analysis of RNase A (micro-concentration step); type: physicochemical; conditions: high sensitivity protocol
Procedure: The high sensitivity SUPREX protocol outlined in FIG. 11 is similar to the SUPREX protocol disclosed above, with the exception that protein samples were subjected to a micro-concentration step after H/D exchange and prior to MALDI analysis. This micro-concentration step involved the use of a batch chromatography method utilizing 10 μL C18 SUPROTIPS™ from AmiKa (Columbia, Md.). It was preferred to quench the H/D exchange reaction with TFA (0.25% v/v) prior to binding the deuterated protein samples to the SUPROTIPS™. This facilitated preservation of the deuteration state of the protein. […]
(§1) For both normal and high sensitivity analyses 10 replicate MALDI mass spectra were collected and analyzed to determine an average change in mass relative to the fully protonated sample (ΔMass) at each [GdmCl]. […]
Values for ΔM0, ΔM∞ and ΔGf were obtained by fitting the ΔMass versus [GdmCl] data to equation 1 using SigmaPlot and a nonlinear least squares analysis. value of 8.47 s^−1 was used, which was calculated based on the data of Bai et al (Bai et al., (1993) Proteins 17: 75–86), using the program SPHERE (Zhang, Ph.D. Thesis, Structural Biology and Molecular Biophysics, University of Pennsylvania); and an m value of 3.1 kcal mol^−1M^−1 was used, which was previously determined in other GdmCl-induced equilibrium unfolding experiments on RNase A (Pace et al., (1990) Biochem. 29: 2564–72). […]

[6] = cited from earlier work; remark: listed apart in the source
[7] = SUPREX analysis of RNase A, normal protocol; type: physicochemical
Procedure: Two different experimental protocols were employed for the SUPREX analysis of RNase A including one for normal analyses and one for high sensitivity analyses. H/D exchange reactions were initiated by combining 1 μL aliquots of a 100 μM solution of RNase A (fully protonated) in 20 mM sodium phosphate buffer (pH 7.4) with 9 μL volumes of 10 different deuterated exchange buffers containing 20 mM sodium phosphate (pD=7.4) and concentrations of GdmCl that varied between 0.5 and 4 M. After a specified exchange time (typically 65 minutes), a 1 μL aliquot of each exchange reaction was combined with 19 μL of a MALDI matrix solution. The MALDI matrix solution, which comprised an ice-cold, saturated, aqueous solution of SA containing 63% MeCN and 0.1% TFA (pH=3.0), effectively a quenched the H/D exchange reaction and prepared the sample for MALDI analysis. This matrix solution also included two internal mass standards, bovine ubiquitin (8566.1 Da) and hen egg lysozyme (14,303.7 Da). Subsequently, 1 μL of the quenched exchange reaction was spotted on a stainless steel MALDI plate and the solvent was evaporated under a gentle flow of air. […]
as §1

P22 Arc repressor: P22 Arc repressor, a homo-dimeric protein (MKGMSKMPQFNLRWPREVLDLVRKVAEENGRSVNSEIYQRVMESFKKEGRIGA; also: homo-dimeric protein; UniProt P03050 1-53, looked up)
standard ΔG value [1]: 47.3 ± 0.84 kJ/mol
previously reported ΔG value ([2]; conventional CD denaturation studies (Bowie et al., 1989)): 46 kJ/mol
maximum ΔGSUPREX value (P22 Arc repressor): < 16.7 kJ/mol

N[C@@H](Cc1c[nH]c2ccccc12)C(=O)O [L-tryptophan]
ΔGBinding (Trp repressor protein): -15.9 kJ/mol

λ6–85: monomeric form of the N-terminal domain of λ repressor, wild type
ΔGf (kcal/mol) CD ([2]; 25° C., purified protein, published values): −4.4 ± 0.2^b kcal/mol
previously reported experimental m value ([2]; measured from CD denaturation curves): 2.1±0.1 kcal mol^−1 M^−1
stability by CD denaturation (linear extrapolation method) [3]: 25.8 ± 0.544 kJ/mol
ΔGf (kcal/mol) SUPREX [4]: -5.0 ± 0.4 kcal/mol

NC(N)=O [urea]
viability of E. coli cells (E. coli): does not perturb the viability of the cells

B1: RNase A: bovine pancreatic ribonuclease A (type I-A) (protein, UniProt P61823 27-150, looked up)
Ribonuclease pancreatic: KETAAAKFERQHMDSSTSAASSSNYCNQMMKSRNLTKDRCKPVNTFVHESLADVQAVCSQKNVACKNGQTNCYQSYSTMSITDCRETGSSKYPNCAYKTTQANKHIIVACEGNPYVPVHFDASV
average ΔGf value and standard deviation ([5]; 3 replicate SUPREX analyses): -50.2 ± 2.1 kJ/mol
ΔGf from one SUPREX curve ([5]; standard error of 0.2): -51.9 kJ/mol
m value ([6]; GdmCl-induced equilibrium unfolding (Pace et al., 1990)): 3.1 kcal mol^−1M^−1
ΔGf by conventional fluorescence denaturation ([6]; Pace et al.): -38.7 ± 2.68 kJ/mol
ΔGf from one SUPREX curve ([7]; FIG. 12B, standard error of 0.2): -54 kJ/mol
average ΔGf value and standard deviation ([7]; three replicate SUPREX analyses): -51.9 ± 1.7 kJ/mol
